Experimental data: article PMC5441903, “The E3 ligase ABI3-INTERACTING PROTEIN2 negatively regulates FUSCA3 and plays a role in cotyledon development in Arabidopsis thaliana” (Journal of Experimental Botany, 2017)
Substitutions are numbered along the chain they refer to.

Biological target: T1, GST–FUS3 (Arabidopsis thaliana, UniProt Q9LW31 1-313)
T1 construct: FUSCA3 (FUS3), Arabidopsis thaliana, At3g26790; GST fusion of ~66 kDa, construct described in Lu et al. (2010); probably the whole FUS3; also called glutathione S-transferase (GST)–FUS3; source: recombinant, purified (glutathione resin)
T1 sequence (looked up): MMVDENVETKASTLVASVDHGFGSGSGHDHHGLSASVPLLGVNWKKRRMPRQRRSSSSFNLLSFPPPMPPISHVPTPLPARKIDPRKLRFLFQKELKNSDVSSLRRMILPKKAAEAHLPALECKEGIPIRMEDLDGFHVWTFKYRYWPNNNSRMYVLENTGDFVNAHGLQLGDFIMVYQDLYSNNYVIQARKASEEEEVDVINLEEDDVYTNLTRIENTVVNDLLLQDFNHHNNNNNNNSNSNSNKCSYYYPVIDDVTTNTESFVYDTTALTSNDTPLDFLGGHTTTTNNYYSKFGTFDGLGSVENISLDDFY
Test: pull-down; purified GST–FUS3 as bait, purified AIP2-6×His variants as prey; glutathione resin; immunoblots with anti-His and anti-GST
Conditions: both partners purified

B1: FLAG-AIP2-6×His (natural protein, Arabidopsis thaliana, UniProt Q8RXD3 1-310, looked up)
chain: MDASSSPSPSEESLKLELDDLQKQLNKKLRFEASVCSIHNLLRDHYSSSSPSLRKQFYIVVSRVATVLKTRYTATGFWVAGLSLFEEAERLVSDASEKKHLKSCVAQAKEQLSEVDNQPTESSQGYLFEGHLTVDREPPQPQWLVQQNLMSAFASIVGGESSNGPTENTIGETANLMQELINGLDMIIPDILDDGGPPRAPPASKEVVEKLPVIIFTEELLKKFGAEAECCICKENLVIGDKMQELPCKHTFHPPCLKPWLDEHNSCPICRHELPTDDQKYENWKEREKEAEEERKGAENAVRGGEYMYV
notes: tagged protein of ~40 kDa; also called AIP2-His; source: cloned into pET28, purified (Ni-NTA-agarose)
B1: binds.

B2: AIP2^(C/S,E/G)-6×His (inactive AIP2 variant) (natural protein, Arabidopsis thaliana, UniProt Q8RXD3 1-310, looked up)
chain: B1 chain with C230S, C231S, E235G
notes: ~40 kDa; Probably the same FLAG-...-6×His construct as m5 with the three mutations; source: recombinant, purified
B2: binds.
